{
  "source": "patent US20240026407A1",
  "about": "“MODIFICATION OF SAPONINS” (GLAXOSMITHKLINE BIOLOGICALS SA, priority 2020, published 2024)",
  "molecules": {"B1": {"name": "1078 (protein, listed as Flavobacterium johnsoniae)", "chain": "MFQKKHLFFILLLASIVSAQEVHKKETNFQPTLESSKPWVYWYWMKSAYSKPGITADLEAMKQAGIAGAYLMTIKGPANPPLIDPPVLQLTPEFWDMIHWAFKEADRLGLKLAFHGADGFAVAGGPWITPEMSMQKIVWSTTEILGGKKVTSKLPVPAHYKDYYKNIATFAIPIKEYEITSQMQLPKVTTSNNTDASFLADPKKDENFKFADAGWIQYEFAQPFTCKSIVIETKGRDFQAQRLIVEVSDDGVNFRFHERMIAPRHGWQDMDFPNTHTITPVTAKYFRFVCDPKGTEPGAEDLDFAKWKQNLKVSKITLSNQSLINNYEGKSGAIWRLTPQTTEKEIPNSDAFKKSEIINISNFVDADGNLNWKAPKGKWKILRMGHTSTGHENATGGAGKGLEVDKFNPELIRFQLDHWFGEAVRSAGPELTSKVLEILHFDSWECGSQNWSSVFQTEFKKRRGYDLVEYLPVMAGIPVESADFSEKVLYDIRKTIADLVADNFYGTIAQIAKEYNVKLSAENVAPVVTSDALLHYKYVDYPSGEFWLKSPTHDKPFDMVDAISGGHIYGKDIIQAESFTALRMDWDEHPGNLKTTADRNYALGINRLFYHVFVHNPWTDRKPGMTLDDIGTFFQRDQTWWKPGKAWFDYCQRVQFQLQKGKPIIDLAVFSGEDFPSRSFVPDRLVPFIPNVFGKERLESEKIRLENEGQPTAKMPKEVTYSKNITDLSQWINPLNGYQYDSFNADVLINRAKVINGKISFEGGIEYGALFFPGSHKMAPNKMLSLASAEKILQLLKDGATIFVDEKPNLQPGVQSEADQKKWQNVIDEIWNNTNSATWKIGKGTVIKLPYLGNDFASIGISQDVYFTNLNRVDSETLAWAHRKSDTEDIYFISNQKAEKRTFDASFRILGKVPQWYNPVTDKTSALDNWKIENGRTIVSITLDANESGFVMFKEETKEILAKGRSSEFEKVQTLDENWKLQFDTEFKGPKEVVKINKLFDWSTSENDQIKYYSGTVVYKKEFIWKGKDSSKTWLDLGEISNIAEIKINGKDCGALWTFPFKTDISKALQKGKNTIEIKVTNTWANRLIGDQKLPKEERLTWTTAPFRLEGEPLLKAGLLGPVIIVKEK"}, "B2": {"name": "1026 (protein, listed as Pseudarthrobacter chlorophenolicus)", "chain": "MTAPARLRAEHLREAMGLAVREPRLSWTPPAATAGQTAYRIMADNGWDTGRIASAESGGIAYGGPALDSRSRFDWRVRTWNVDSDGTETASDWSESMPVELGLLHPSDWTGQWISPGEEAVSPPGERPGYALTRTFTLPAAPDKARAYATAHGIYELFINGQRVGDQQLTPGSTSYNTTLQVQAYDVTALLTAGLNTIRAVLTDGWYRGTFGYTRDADMYGTHTAFLAQLELESEAGRQVIGTDPSWLVSATEVISADLMAGQRVDFRAYDTGSAPSAGKAPGVRAAVVRPGSFGALTGPLAPPTRVTEELAPVSITRLRNGHQVVDFGQNIHGWVRLAALGGPGETVTLEYGEALGRDGDVTRDHLRPHDFRVPGAFLDAGQVDTVTASGAPGEVFEPRHTSHGFQFVSVRGLATDLRPRDVTACLVRTDLERIGTFHCSDERLNKLHGIVEWSFLGNSCEVPTDCPQREKAGWTGDWQLFVPTAAYLYDVTGFTRKWLRDVRADQWDNGVIANISPSPGPAITSAEFMGFTNGSSGWGDAIVMVPWEAYLATGDASILAENWDAMNRWLGFVRTTAETRRHAARATQAPVPADHEKYLWDTGFHFGEWMEPDGPGPDLFASRTADNGIVATAYYRHTTDLMARIARALGLAAEAADLARLSDAIRDAWATEYLDESGRVTVASQANCVRALAFQLAGTEHRAAVTTQLVELIRDAGTHLGTGFLATPYLLPVLADHGHLGLAYELLMQDSEPSWLAMVDRGATTVWELWNGLDAGGAPHQSLNHYSKGAVVSFLHRYTAGLRQAPGSAGWNRIIIEPRPGAGLTSAATSHQGPHGPITVAWTLSTDALGPDEMTADGVLTLTADIPSGTTAEILLPGQPAAVVGPGHHVFSAATGGDTAHPELMRSTL"}, "B3": {"name": "1050 (protein, listed as Streptomyces bottropensis)", "chain": "MNNAPYDLRIDTGGDQFAVSGPAPRLSWKPPSDTGHPAGYELECTVDGDAQPALRVAPGRHRFLPWPWAALGSGRQVEWRVRADGPGGPTPWSEWNAFEVGLLDEDWQARWISPAESGDPGYGKRPAHTLTARFEVRAGVRSARLYATALGLYEAYVNGERAGTAELSPGSTSYDRTLHAQASDVTAAVRAGGNLVEIVLSDGWYRGQVGAFRLPAGWGTVLGARAELHIAYEDGSRQVVRSDETWTSTRSAITRADLMDGQSTDFRAGRDTEQPVLVDRVEAAAIDWSPAPPVRVVASRPAQSVKQLRDGLWIADFGQNASGRLAVGDLGPAGTRTVIDYGEHVGPDGDLTTAHLDSSRPGEEPIPFVQRDEVVSMGRGETFEPRHTVHGFQYARIRRDGAPLDPASLTMRVVHTDLRRAGSFACSDDDLNRLHEIADWSFRGNAVDVPTDCPTRERLAWTGDYQVFAPTATRLYDVLGFSRKWLRSVRDDQLPDGRIANFSPDGRRIKHHLDDQFAMMTGSAGWGDAIVAVPWELYQSYGDQEILAENWEAMVRWVEWALRTARTARHHSRRERSAEPRPHERYLWDGSFHWGEWTEPRTKTADGTRIDPVKTDPVAWFMADKGEVGTAFLYRSTSTLADVARVLGRTEDAARYAETAEHVRDAWRTEFLTPDGRTTGDTQAGYVRALSLGLVPAELRPAAAARLVELIRSAGTHLGTGFLATGDLLPVLADTGHTDMAYELLLRRTAPSWLYMLDHGATTIWEDWEGIDENGDAHDSLNHYSKGAVIRFLHTHTLGLRQAPGSVAWESVEVAPVPHPSLTWARGTHESPQGTIAVEWRTTGDELTLAVDVPPATTARVVFPDGTTETATTGTFRATRRITCASSARSARAPGDEPLVRSEGATD"}, "B4": {"name": "995 (protein)", "chain": "MILLGALSLASSTFAQTWIWYPGDYEIWLGNQMNNRRTERGAFFPPFWKTDSHYVVVEFSKVLNLSEPEEVFIAAEGTYNVKLDGKLQFGMPETLLLPAGKHSLNIKVWNQATPPTIYVKGKTVNSDSSWRVTYEDKEWIDESGKASDTSATIYMDAGCWNFDGATQRPSQFSLMREPQQPVAKTEQPEGGILYDFGKETFGFITLKNLSGKGKIDLYYGESPEEAKDKAYCETLDKLLLEPGQITDLAIRSTSPLHHSDNEYTLENSKAFRYVYITHEPEVQIGEVSMQYEYLPEEYRGNFRCNDEELNCIWEVGAYTMHLTTREFFIDGIKRDRWVWSGDAIQSYLMNYYLFFDSESVKRTIWLLRGKDPVTSHSNTIMDYTFYWFLSVYDYYMYSGDRHFVNQLYPRMQTMMDYVLGRTNKNGMVEGMSGDWVFVDWADGYLDKKGELSFEQVLFCRSLETMALCADLVGDKDGQQKYEKLASALKAKLEPTFWNNQKQAFVHNCVDGRQSDAVTRYANMFSVFFDYLNADKQQAIKQSVLLNDEILKITTPYMRFYELEALCALGEQETVMKEMKAYWGGMLKAGATSFWEKYNPEESGTQHLAMYGRPYGKSLCHAWGASPIYLLGKYYLGVKPTKEGYKEFAVSPVLGGLKWMEGTVPTPNGDIHVYMDNKTIKVKATEGKGYLTIQSRRQPKANMGTVEKVSEGVWRLWIDSPEERIVTYRL", "modifications": "Bacteroides thetaiotaomicron"}, "B5": {"name": "1040 (protein, listed as Rhodopirellula baltica)", "chain": "MNEDGWQDRRQLPRFSWIRLAKGRSAELSSIPVRPLKMLLSILFLTVITVAASSSVSALEPQRLRCEYLENPTGIDAARTRLSWQVTSDQRGQSQIAYRLLVASSEEQLGSGVGDLWDSGKVKSDQTLFVEYAGKPLSSRQECFWKVQVWDGAGNATESEVASWSMGLLDQSDWSAEYISYRDDSPIHTDLSTLHLPAARQYRKEFSASKSIKRATVYATALGIYELHLNGQRVGDASFAPGWTDYRKRAYYNTYDVTNLVREGDNAIGAWVADGWYSGYVGFGLLTGMGPEKNGRSTYGKTPSFMSQLEIEFEDGTKQTIGTDTTWKVTGEGPIQEADLLMGESYDARREMVGWSEPGFDHDHWDDAILAKQNGQVTAAFYEFRNPTTTGAGVKKVGEQRDFGFKRPELEAFPGVPVRVTQEIPAKTVSKLEPGTFVFDLGQNFAGTIRLKIKGREGERIQLRYGEMLHPDGRLMTENLRKARATDYYTCKGNPDGEFYQPRFTFHGFQFVEVKRLSDSSEDAGKATDSQNVQTPPLDMVTGLVLHSDTPMASTFECSDPMVNQLFKNVLWTQRANFLDLPTDCPQRDERMGWTGDAQAYVATAAYNADIGAFYTKWLRELMESQRPSGAFPGYAPYPFQHGWDFGTAWADAGVICPWTIWQFYGDTRVIDDCWEPMTRFMRWRKQTSVNDLGVSHGNAWGDWLSQGEETPLDYIDTVYFAISARMMAEMAEATGRDEEAKLYREQRAATQAAFQAKYLNEDGSITVRTQTAQALALFADLVPAEQREATGKYLAKRLSENGNHMATGFLGTRPLLPVLSGSGQHDLATFLLQSREFPSWGYEISNGATTIWERWDSYTKEDAFGRHNAAMNSFSHYAFGAVCEWMFATLAGIQSDGPGFKRIVIRPTPPSPGSNAMHEPINWVKASYESIRGTIRSEWKMVDGRFHLNVTIPANTTATVYLPTNDANSITESGNALADTANVSLLRKETNVVALTVHSGSYEFLASSGIVPAKVSLKSSEPKDNSINPGEIDLTDATKLESWDFRNPQDLAKWGERKSVDIEQRNGSAYLVATGDDSQMAVRMTKPLEGKLVIELRASPSQNSTSQFYWAIPGRGFNGQQQTKRLLRQSDAVNAYLFAIPDALTVGKLRFDPFATYDEYANAGEMMIESISIYRLVD"}},
  "assay_type_in_all_cases": "biochemical, Quillaja saponaria",
  "key": {"[1]": {"assay": "Experiment 6-1: specificity of rhamnosidases towards other rhamnose residues (C3 saccharide rhamnose, C28 saccharide rhamnose)", "conditions": "TBE 2%, pH 7.5, 30 degC, 18 h; LCMS/MS; negative controls 0.18, 0.17"}, "[2]": {"assay": "Experiment 6-1: screening of rhamnosidases for derhamnosylation of saponins in treated bark extract (2%), desglucosyl-QS-17 2134 to QS-21 1988 (PAR %)", "conditions": "TBE 2%, pH 7.5, 30 degC, 18 h; TIC peak area ratio percent, LCMS/MS; negative controls 2.719, 2.158"}, "[3]": {"assay": "Experiment 6-1: screening of rhamnosidases for derhamnosylation of saponins in treated bark extract (2%), QS-17 2296 to QS-18 2150 (PAR %)", "conditions": "TBE 2%, pH 7.5, 30 degC, 18 h; TIC peak area ratio percent of rhamnosylated starting saponin to derhamnosylated product, LCMS/MS; negative controls 4.876, 5.225"}, "[4]": {"assay": "Experiment 6-1: screening of rhamnosidases for derhamnosylation of saponins in treated bark extract (2%), QS-17 2310 to QS-18 2164 (PAR %)", "conditions": "TBE 2%, pH 7.5, 30 degC, 18 h; TIC peak area ratio percent, LCMS/MS; negative controls 3.061, 2.429"}},
  "data": [
    {"molecule": "B1", "values": [
      {"measurement": "ratio PP/QS-21", "setting": "[1]", "result": 0.16},
      {"measurement": "Peak75 (PAR %)", "setting": "[2]", "result": 2.153, "unit": "%"},
      {"measurement": "QS-17 (PAR %)", "setting": "[3]", "result": 5.218, "unit": "%"},
      {"measurement": "Peak57 (PAR %)", "setting": "[4]", "result": 2.788, "unit": "%"}
    ]},
    {"molecule": "B2", "values": [
      {"measurement": "ratio PP/QS-21", "setting": "[1]", "result": 0.17},
      {"measurement": "Peak75 (PAR %)", "setting": "[2]", "result": 2.501, "unit": "%"},
      {"measurement": "QS-17 (PAR %)", "setting": "[3]", "result": 5.271, "unit": "%"},
      {"measurement": "Peak57 (PAR %)", "setting": "[4]", "result": 2.755, "unit": "%"}
    ]},
    {"molecule": "B3", "values": [
      {"measurement": "ratio PP/QS-21", "setting": "[1]", "result": 0.17},
      {"measurement": "Peak75 (PAR %)", "setting": "[2]", "result": 2.528, "unit": "%"},
      {"measurement": "QS-17 (PAR %)", "setting": "[3]", "result": 5.251, "unit": "%"},
      {"measurement": "Peak57 (PAR %)", "setting": "[4]", "result": 2.305, "unit": "%"}
    ]},
    {"molecule": "B4", "values": [
      {"measurement": "ratio PP/QS-21", "setting": "[1]", "result": 0.17},
      {"measurement": "Peak75 (PAR %)", "setting": "[2]", "result": 2.545, "unit": "%"},
      {"measurement": "QS-17 (PAR %)", "setting": "[3]", "result": 5.223, "unit": "%"},
      {"measurement": "Peak57 (PAR %)", "setting": "[4]", "result": 3.002, "unit": "%"}
    ]},
    {"molecule": "B5", "values": [
      {"measurement": "ratio PP/QS-21", "setting": "[1]", "result": 0.18},
      {"measurement": "Peak75 (PAR %)", "setting": "[2]", "result": 2.372, "unit": "%"},
      {"measurement": "QS-17 (PAR %)", "setting": "[3]", "result": 5.244, "unit": "%"},
      {"measurement": "Peak57 (PAR %)", "setting": "[4]", "result": 3.084, "unit": "%"}
    ]}
  ]
}
